Data from patent publication US20060264369, “Aptamers to von Willebrand Factor and their use as thrombotic disease therapeutics” (published 2006).
Numbering of substitutions follows the chain as printed.

B1: AMX206.D8 (mixed)
DNA: GGAGCGCACTCAGCCACGACGGTGATGGATTAGCGCGGTGGATCTTAACGTGCGAGTTTCGACCTCTCTGCTAGC
modifications: 2'-OH purines, deoxy pyrimidines
B2: AMX205.F7 (ARC841) (mixed)
DNA: GGAGCGCACTCAGCCACACGACATTGGCGGGTTGTAATTACCACGCATGGCTGTTTGTTTCGACCTCTCTGCTAGC
modifications: 2'-OH purines, deoxy pyrimidines
B3: AMX205.H9 (mixed)
DNA: GGAGCGCACTCAGCCACGACGGTGATGGATTAGCGCGGTGGAGAAGATGCGCTGTTGTTTCGACCTCTCTGCTAGC
modifications: 2'-OH purines, deoxy pyrimidines
B4: AMX205.H10 (mixed)
DNA: GGAGCGCACTCAGCCACTGTTGCCGACGGTGATGTATTAACGCGGGCAACGTTGGTGTTTCGACCTCTCTGCTAGC
modifications: 2'-OH purines, deoxy pyrimidines
B5: AMX203.G9 (ARC842) (mixed)
DNA: GGAGCGCACTCAGCCACGGGGTGGGTAGACGGCGGGTATGTGGCTGGTGTCGAAGGGTTTCGACCTCTCTGCTAGC
modifications: 2'-OH purines, deoxy pyrimidines
B6: AMX201.G1 (ssRNA)
RNA: GGAGCGCACUCAGCCACGCUCGGUGGGGAAAUUUUAGCCUAAUUGGCUACUUGUGCGUUUCGACCUCUCUGCUAGC
modifications: 2'-F pyrimidines
B7: AMX198.A10 (ssRNA)
RNA: GGAGCGCACUCAGCCACCAGUUAUGCUGGCUUUGGUCUUUGACUGUCUGAGUGUUCGUUUCGACCUCUCUGCUAGC
modifications: 2'-F pyrimidines
B8: AMX198.E5 (ssRNA)
RNA: GGAGCGCACUCAGCCACUUCGACUUUCAUGUCUGAAGUCCCUGCAGUGCGAGAGACGUUUCGACCUCUCUGCUAGC
modifications: 2'-F pyrimidines
B9: AMX201.B1 (ssRNA)
RNA: GGAGCGCACUCAGCCACAGAGCCCUGAGUGUAUGAUCGCCUAGAUCUAUCGAUGCUUUUUCGACCUCUCUGCUAGC
modifications: 2'-F pyrimidines
B10: AMX201.H1 (ssRNA)
RNA: GGAGCGCACUCAGCCACUUUACGGUGAAAGUCUCUCGGGGUUCCGAGUUACGGUGCGUUUCGACCUCUCUGCUAGC
modifications: 2'-F pyrimidines
B11: AMX198.E11 (ssRNA)
RNA: GGAGCGCACUCAGCCACGGUAACAUUGUUUCCGGCGAUUCUUUGAACGCCGUCGUGGUUUCGACCUCUCUGCUAGC
modifications: 2'-F pyrimidines
B12: AMX198.C6 (ssRNA)
RNA: GGAGCGCACUCAGCCACGGUGGUCAGUCAGUGAUAUGAUUAAGUUCAGCUGUGGCUGUUUCGACCUCUCUGCUAGC
modifications: 2'-F pyrimidines
B13: AMX201.H3 (ssRNA)
RNA: GGAGCGCACUCAGCCACUAACGGUUGAUCUCAGGACUAAAUAGUCAACAAGGAUGCGUUUCGACCUCUCUGCUAGC
modifications: 2'-F pyrimidines
B14: AMX201.G9 (ssRNA)
RNA: B13 RNA with U24C
modifications: 2'-F pyrimidines
B15: AMX201.C8 (ARC840) (ssRNA)
RNA: GGAGCGCACUCAGCCACCCUCGCAAGCAUUUUAAGAAUGACUUGUGCCGCUGGCUGUUUUCGACCUCUCUGCUAGC
modifications: 2'-F pyrimidines
B16: AMX198.G1 (ssRNA)
RNA: GGAGCGCACUCAGCCACAACACUAAUGGGGAAAGUUCAAGGAUUCUUGACCGGUGCGUUUCGACCUCUCUGCUAGC
modifications: 2'-F pyrimidines
B17: AMX198.C10 (ssRNA)
RNA: GGAGCGCACUCAGCCACUGGUCCUUAGCUAGUUGUACUAGCGACGCGUUCAGGUGGUUUCGACCUCUCUGCUAGC
modifications: 2'-F pyrimidines

Target: T1, von Willebrand factor A1 domain (Homo sapiens, UniProt P04275 SEQ:13-246)
T1 sequence (P04275 1238-1471 T1381A): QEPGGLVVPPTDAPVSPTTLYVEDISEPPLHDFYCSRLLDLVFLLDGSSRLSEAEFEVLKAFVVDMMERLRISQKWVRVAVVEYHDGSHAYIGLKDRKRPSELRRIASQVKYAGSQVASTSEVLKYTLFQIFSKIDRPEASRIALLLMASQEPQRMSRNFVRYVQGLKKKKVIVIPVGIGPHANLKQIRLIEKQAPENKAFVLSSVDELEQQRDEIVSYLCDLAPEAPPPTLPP
Experiment: filter; DPBS, 0.1 mg/mL BSA, RT
Details: label: 5'-32P
Procedure: Based on this initial screen, KD's were determined for 16 of the best vWF dependent binding sequences using the dot blot assay. […] A 6 point protein titration of human vWF A1 domain (SEQ ID NO 5) was used in the dot blot assay (333 nM, 100 nM, 33 nM, 10 nM, 3 nM, 0 nM) in 1× DPBS plus 0.1 mg/mL BSA at room temperature for 30 minutes. KD values were calculated by fitting the equation y=(max/(1+K/protein))+yint using KaleidaGraph (KaleidaGraph v. 3.51, Synergy Software).

Binder | Kd
B1 | 370 nM
B2 | 1.5 nM
B3 | 178 nM
B4 | 397 nM
B5 | 1.3 nM

Target: T1, von Willebrand factor A1 domain
Experiment: filter; DPBS, 0.1 mg/mL BSA, 24 C
Details: label: 5'-32P
Procedure: Based on this initial screen, KDs were determined for 12 of the best vWF dependent binding sequences using the dot blot assay and are reported in column 5 of Table 4 below.

Binder | Kd
B6 | 190 nM
B7 | 1860 nM
B8 | 172 nM
B9 | 19 nM
B10 | 189 nM
B11 | 1060 nM
B12 | 249 nM
B13 | 90 nM
B14 | 182 nM
B15 | 0.2 nM
B16 | 45 nM
B17 | 555 nM
